{"source": "patent US6673902B2", "about": "“Cyclin D binding factor, and uses thereof” (St. Jude Children's Research Hospital, priority 1996, dated 2004)", "key": {"recombinant DMP1 [1]": {"target": "T1, recombinant DMP1 (Mus musculus, UniProt Q8CE22)", "T1 construct": "made in house; host or cells: Sf9 insect cells, pAcYM1 baculovirus vector; used as crude lysate (~4 ng DMP1 per reaction)", "T1 sequence (Q8CE22 1-761)": "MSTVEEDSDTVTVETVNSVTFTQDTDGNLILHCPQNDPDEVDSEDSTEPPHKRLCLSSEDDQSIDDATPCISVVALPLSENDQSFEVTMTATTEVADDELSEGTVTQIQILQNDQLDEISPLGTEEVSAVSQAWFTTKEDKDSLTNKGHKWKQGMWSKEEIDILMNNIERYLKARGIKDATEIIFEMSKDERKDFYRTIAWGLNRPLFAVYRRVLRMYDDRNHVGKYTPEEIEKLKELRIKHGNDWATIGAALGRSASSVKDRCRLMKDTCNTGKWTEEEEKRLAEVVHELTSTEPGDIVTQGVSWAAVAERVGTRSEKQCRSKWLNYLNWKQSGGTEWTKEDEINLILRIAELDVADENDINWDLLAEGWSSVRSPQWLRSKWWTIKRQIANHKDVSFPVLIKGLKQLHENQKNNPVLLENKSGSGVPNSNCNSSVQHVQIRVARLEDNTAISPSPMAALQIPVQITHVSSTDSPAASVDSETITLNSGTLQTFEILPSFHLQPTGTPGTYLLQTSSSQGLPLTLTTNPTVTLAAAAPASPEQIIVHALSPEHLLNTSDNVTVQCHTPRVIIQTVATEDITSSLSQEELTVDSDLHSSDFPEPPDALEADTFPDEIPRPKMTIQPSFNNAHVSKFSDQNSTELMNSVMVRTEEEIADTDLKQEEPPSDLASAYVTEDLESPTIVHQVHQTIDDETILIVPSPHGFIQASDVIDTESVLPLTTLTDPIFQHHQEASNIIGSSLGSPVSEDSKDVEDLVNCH", "assay": "EMSA competition with Sf9 lysates producing recombinant DMP1", "assay_type": "binding", "details": "excess unlabeled oligonucleotide", "description": "Double-stranded oligonucleotides containing potential DMP1 binding sites (BS1 and BS2) and mutated versions (M1-M4) (FIG. 5B) are end-labeled with ^32P using the Klenow fragment of DNA polymerase and α-^32P-dATP (6000 Ci/mmol; Dupont NEN) (8). Nuclear extracts from mouse NIH-3T3 or CTLL cells are prepared with buffer containing 0.4 M NaCl (2). Mammalian cell extracts (15 μg protein) or Sf9 lysates (corresponding to 5×10^2 infected cells) containing ˜4 ng recombinant DMP1 are mixed with 3 ng of ^32P-labeled probe (1×10^5 cpm) in 15 ul Binding buffer containing 2.5 μg of poly(dI-dC) and 2.5 μg BSA and incubated at 4° C. for 30 minutes. For competition experiments, the indicated amounts of unlabeled oligonucleotides are added to the reactions before addition of the labeled probe. In some experiments, a bacterially produced GST-Ets2 fusion protein containing the complete Ets2 DNA-binding domain (10) is used in place of Sf9 extracts containing recombinant DMP1. Protein-DNA complexes are separated on nondenaturing 4% polyacrylamide gels as described (8). Where indicated, antiserum to DMP1 together with 2.5 μg salmon testis DNA (Sigma; used to reduce nonspecific DNA binding activity caused by serum addition) is preincubated with extracts for 30 minutes at 4° C. prior to initiation of binding reactions. Immune complexes are either removed by adsorption to protein A-Sepharose beads (immunodepletion experiments) or are allowed to remain (“supershift” experiments).\nUsing electrophoretic mobility shift assays (EMSA) performed after mixing a titrated excess (3 ng) of ^32P-end labeled BS1 probe with Sf9 lysates producing DMP1 (˜4 ng recombinant protein per reaction), a BS1-containing protein complex is detected that was competed with an excess of unlabeled BS1 oligonucleotide but not with mutant oligonucleotides M1 and M2 (FIG. 6A). […] More subtle mutations within this region may be tolerated, because high concentrations of M4 competed for BS1 binding to both Ets2 and DMP1 in subsequent studies (FIG. 5B and see below). DMP1 also binds a BS2 probe, and the binding is competed by excess BS2 or BS1 (FIG. 6B). In agreement with the site selection frequencies (FIG. 5A), binding of ^32P-BS1 under equivalent conditions was competed more efficiently by excess unlabeled BS1 than by BS2 (FIG. 6B). […] In agreement, Ets2 binding to BS1 could be competed with excess unlabeled BS1 and M3, but not by BS2 (FIG. 6C). Therefore, although both DMP1 and Ets2 can each bind to BS1 sequences, their exclusive interactions with BS2 and M3, respectively, help to distinguish DMP1 and Ets binding activities (summarized in FIG. 5B)."}, "recombinant DMP1 [2]": {"target": "T1, recombinant DMP1", "assay": "EMSA competition, recombinant DMP1 and 281 base pair ARF promoter fragment", "assay_type": "binding", "details": "200-fold excess of unlabelled oligonucleotide", "description": "Electrophoretic mobility shift assay (EMSA). Recombinant DMP1 protein was prepared in Sf9 cells [Hirai and Sherr, Mol. Cell. Biol. 16:6457-6467 (1996)]. Purified bacterial proteins representing the Ets1 DNA binding domain or full-length Ets1 [Inoue, et al., J. Biol. Chem. 273:29188-29194 (1998)] were used. EMSAs were performed [Inoue and Sherr, Mol. Cell. Biol. 18:1590-1600 (1998)] using either a 281-bp genomic fragment (−225 to +56) or double-stranded oligonucleotides containing the DMP1/Ets site obtained by annealing oligonucleotide 5′-[…]-3′ (sense strand SEQ ID NO:41); DMP1/Ets consensus sequence underlined) with a complementary antisense strand. For competition experiments, a 200-fold excess of unlabelled oligonucleotides was added to reaction mixtures before the probe. To verify the identity of the proteins in shifted complexes, reaction mixtures were incubated with control nonimmune rabbit serum (NRS), serum AF [Hirai and Sherr, Mol. Cell. Biol. 16:6457-6467 (1996)] and M-10 (both to DMP1 carboxylterminal epitopes), S-19 (DMP1 N-terminus), or C-20 (Ets1 C-terminus) before electrophoresis. M-10, S-19, and C-20 were from Santa Cruz Biotechnology.\nThe nucleotide sequence of the proximal promoter region of the murine ARF gene relative to the transcription initiation site as defined by S1 mapping analysis was determined (FIG. 13). […]"}}, "data": [{"substance": "M3: DMP1 deletion mutant (NcoI), amino acids 1-458 of SEQ ID NO:1", "values": [{"measurement": "competition for 32P-BS1 probe binding to DMP1", "setting": "recombinant DMP1 [1]", "result": "does not compete"}, {"measurement": "competition for BS2 probe binding to DMP1", "setting": "recombinant DMP1 [1]", "result": "does not compete"}, {"measurement": "competition for DMP1 binding to the 281 base pair ARF promoter fragment", "setting": "recombinant DMP1 [2]", "result": "did not compete"}]}]}
